In US6372898 (SCHERING, dated 2002):
Where a chain is given by its changes, count along the chain named. Names may count otherwise. Read-outs that look alike come from different tables or passages of the source. Blank lines part the entries; values can stand above or below the binder they belong to.

How the values were obtained:
[1] = system: T1, cytokine receptor common gamma chain (γc), wild type
T1 sequence: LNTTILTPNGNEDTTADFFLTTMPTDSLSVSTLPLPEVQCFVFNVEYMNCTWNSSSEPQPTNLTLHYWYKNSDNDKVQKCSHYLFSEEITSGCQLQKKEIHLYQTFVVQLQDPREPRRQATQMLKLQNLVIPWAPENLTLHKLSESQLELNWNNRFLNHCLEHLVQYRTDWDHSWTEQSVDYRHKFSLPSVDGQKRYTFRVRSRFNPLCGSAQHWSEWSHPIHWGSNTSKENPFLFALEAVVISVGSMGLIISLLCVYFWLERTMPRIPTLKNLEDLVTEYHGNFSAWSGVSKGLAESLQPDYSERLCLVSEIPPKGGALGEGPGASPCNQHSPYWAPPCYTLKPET

[2] = target: T2, cytokine receptor common gamma chain (γc), wild type (human, UniProt P31785 23-369); assay: co-immunoprecipitation from 293T lysates; γc precipitated, blot for the epitope-tagged Jak3 fragment
T2 construct: also called WT γc; gc
T2 sequence: T1 sequence
Description: (§1) Lysates were centrifuged at 12,000×g, and NaCl was added to 500 mM final concentration. Lysates were immunoprecipitated with the appropriate antibody. Rabbit polyclonal, mouse monoclonal (M2), and Sepharose-conjugated M2 anti-FLAG antibodies were purchased from Kodak Scientific Imaging Systems (Rochester, N.Y.), Goat anti-γ_c antibody was purchased from R&D (Minneapolis, Minn.). Lysates were boiled, and subjected to 8% SDS-PAGE or 12% SDS-PAGE for experiments with Jak3 fragments, and electrotransferred onto […] membranes (Immobilon-P, Millipore, Bradford, Mass.). Membranes were probed with one of the following antibodies: Mouse monoclonal M2 anti-FLAG antibody, rabbit polyclonal anti-γ_c antibody, or mouse monoclonal anti-Myc tag antibody 9E10 (Santa Cruz Biotechnology, Santa Cruz, Calif.). For the immunoprecipitation with EBV-transformed B cell lines and the IL-2R expressing fibroblasts, cells were lysed as described above, except with a final NaCl concentration of 150 mM. Lysates were immunoprecipitated with monoclonal (M2) anti-FLAG antibody, rabbit polyclonal antibody directed against the C-terminus of Jak3 (α-Jak3; Kawamura, et al. (1994) *Proc Nat'l Acad Sci USA* 91:6374–8) or rabbit polyclonal antibody specific for STAT5b (Santa Cruz Biotechnology, Santa Cruz, Calif.). Immunoprecipitates were then washed, boiled, and resolved using SDS-PAGE. […]

[3] = target: T3, cytokine receptor common gamma chain (γc), wild type
T3 chain: T1 sequence

[4] = target: T2, cytokine receptor common gamma chain …; assay: co-immunoprecipitation from 293T lysates; anti-FLAG M2 IP of FLAG-tagged Jak3, blot for γc
Description: as §1

[5] = target: T2, cytokine receptor common gamma chain …; assay: co-immunoprecipitation (summary of the combined results)
[6] = target: T2, cytokine receptor common gamma chain …; assay: co-immunoprecipitation, 293T cells

B1: Jak3/Jak1 chimera J3 1-256 (enzyme, part only; not given: Jak1 C-terminal part and tag)
chain, part: MAPPSEETPLIPQRSCSLLSTEAGALHVLLPARAPGPPQRLSFSFGDHLAEDLCVQAAKASGILPVYHSLFALATEDLSCWFPPSHIFSVEDASTQVLLYRIRFYFPNWFGLEKCHRFGLRKDLASAILDLPVLEHLFAQHRSDLVSGRLPVGLSLKEQGECLSLAVLDLARMAREQAQRPGELLKTVSYKACLPPSLRDLIQGLSFVTRRAIRRTVRRALPRVAACQADRHSLMAKYIMDLERLDPAGAAETFHV
IL-2 induced tyrosine phosphorylation of STAT5b in IL-2R+ fibroblasts [1]: the J3 1-256 chimera (encoding both of the entire JH7/JH6 regions) responded to IL-2 stimulation by tyrosine phosphorylating STAT5b
IL-2 induced tyrosine phosphorylation of the chimera in IL-2R+ fibroblasts [1]: The smallest region of a chimeric Jak3/Jak1 which reconstituted IL-2-induced tyrosine phosphorylation was a region that contained both of the entire JH7 and JH6 domains
phosphorylation of IL-2Rβ after IL-2 in IL-2R+ fibroblasts [1]: it was only detected in cell lines that expressed Jak3/Jak1 chimeras having the entire JH7 and JH6 domains

B2: Jak3/Jak1 chimera J3 1-130 (enzyme, part only; not given: Jak1 C-terminal part and tag)
chain, part: MAPPSEETPLIPQRSCSLLSTEAGALHVLLPARAPGPPQRLSFSFGDHLAEDLCVQAAKASGILPVYHSLFALATEDLSCWFPPSHIFSVEDASTQVLLYRIRFYFPNWFGLEKCHRFGLRKDLASAILD
IL-2 induced tyrosine phosphorylation of STAT5b in IL-2R+ fibroblasts [1]: cells expressing the J3 1-130 chimera also failed to demonstrate STAT5b phosphorylation

binding result [2]: no binding
B3: Jak3 fragment J3 1-109 (other, not shown: small tags and cut ends)
chain: MAPPSEETPLIPQRSCSLLSTEAGALHVLLPARAPGPPQRLSFSFGDHLAEDLCVQAAKASGILPVYHSLFALATEDLSCWFPPSHIFSVEDASTQVLLYRIRFYFPNW

B4: wild-type Jak3 (protein)
chain: MAPPSEETPLIPQRSCSLLSTEAGALHVLLPARAPGPPQRLSFSFGDHLAEDLCVQAAKASGILPVYHSLFALATEDLSCWFPPSHIFSVEDASTQVLLYRIRFYFPNWFGLEKCHRFGLRKDLASAILDLPVLEHLFAQHRSDLVSGRLPVGLSLKEQGECLSLAVLDLARMAREQAQRPGELLKTVSYKACLPPSLRDLIQGLSFVTRRAIRRTVRRALPRVAACQADRHSLMAKYIMDLERLDPAGAAETFHVGLPGALGGHDGLGLLRVAGDGGIAWTQGEQEVLQPFCDFPEIVDISIKQAPRVGPAGEHRLVTVTRTDNQILEAEFPGLPEALSFVALVDGYFRLTTDSQHFFCKEVAPPRLLEEVAEQCHGPITLDFAINKLKTGGSRPGSYVLRRSPQDFDSFLLTVCVQNPLGPDYKGCLIRRSPTGTFLLVGLSRPHSSLRELLATCWDGGLHVDGVAVTLTSCCIPRPKEKSNLIVVQRGHSPPTSSLVQPQSQYQLSQMTFHKIPADSLEWHENLGHGSFTKIYRGCRHEVVDGEARKTEVLLKVMDAKHKNCMESFLEAASLMSQVSYRHLVLLHGVCMAGDSTMVQEFVHLGAIDMYLRKRGHLVPASWKLQVVKQLAYALNYLEDKGLPHGNVSARKVLLAREGADGSPPFIKLSDPGVSPAVLSLEMLTDRIPWVAPECLREAQTLSLEADKWGFGATVWEVFSGVTMPISALDPAKKLQFYEDRQQLPAPKWTELALLIQQCMAYEPVQRPSFRAVIRDLNSLISSDYELLSDPTPGALAPRDGLWNGAQLYACQDPTIFEERHLKYISQLGKGNFGSVELCRYDPLAHNTGALVAVKQLQHSGPDQQRDFQREIQILKALHSDFIVKYRGVSYGPGRPELRLVMEYLPSGCLRDFLQRHRARLDASRLLLYSSQICKGMEYLGSRRCVHRDLAARNILVESEAHVKIADFGLAKLLPLDKDYYVVREPGQSPIFWYAPESLSDNIFSRQSDVWSFGVVLYELFTYCDKSCSPSAEFLRMMGCERDVPALCRLLELLEEGQRLPAPPACPAEVHELMKLCWAPSPQDRPSFSALGPQLDMLWSGSRGCETHAFTAHPEGKHHSLSFS
IL-2 induced tyrosine phosphorylation of Jak3 in IL-2R+ fibroblasts [3]: Jak3 was rapidly tyrosine phosphorylated and associated with the IL-2 receptor complex
IL-2 induced tyrosine phosphorylation of STAT5b in IL-2R+ fibroblasts [3]: Cells expressing wild type Jak3 (WT) exhibited tyrosine phosphorylation of STAT5b

binding result [4]: no binding
B5: Jak3 Y100C (enzyme)
chain: B4 chain with Y100C
notes: also called Y100C mutant; patient mutant; not shown: C-terminal FLAG tag (single copy) joined through a ClaI site
IL-2 induced tyrosine phosphorylation of Jak3 in IL-2R+ fibroblasts [3]: no IL-2-induced phosphorylation of Jak3 Y100C was observed

binding result [5]: no binding
B6: Jak3 I102A (enzyme)
chain: B4 chain with I102A
notes: not shown: C-terminal FLAG or Myc tag joined through a ClaI site

binding result [6]: no binding
B7: Jak3 Y100C/K855A (enzyme)
chain: B4 chain with Y100C, K855A
notes: also called J3 Y100C/K855A; not shown: C-terminal FLAG or Myc tag joined through a ClaI site

binding result [5]: no binding
B8: Jak3 Y100A mutant (enzyme)
chain: B4 chain with Y100A
notes: as for B6

binding result [4]: no binding
B9: Jak3 Y100C/Y105F double mutant (enzyme)
chain: B4 chain with Y100C, Y105F
notes: not shown: C-terminal FLAG tag (single copy) joined through a ClaI site

binding result [5]: no binding
B10: Jak3 L98A (enzyme)
chain: B4 chain with L98A
notes: also called Leucine 98A; not shown: C-terminal FLAG or Myc tag joined through a ClaI site
